For data set [1], the target named is T1, BODIPY-β-annulus peptide (tomato bushy stunt virus, BODIPY-maleimide added by Michael addition to the thiol of the N-terminal Cys).
T1 construct: also called BODIPY-labelled β-annulus peptide; fluorescent-labelled β-annulus peptide; source: synthetic peptide (solid-phase Fmoc chemistry; labelled with BODIPY-maleimide; purified by reversed-phase HPLC)
T1 peptide: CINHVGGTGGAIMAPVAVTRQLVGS
Put plainly: fluorescence correlation spectroscopy (FCS); 0.1 μM BODIPY-β-annulus peptide with 0~200 μM β-annulus peptide in 10 mM Tris-HCl buffer (pH 7.0) with 20 wt% PEG2000, 25 °C; ratio of the slow component fitted to the Hill equation. To be noted: both partners purified.

The target of data set [2] is T1, BODIPY-β-annulus peptide. Put plainly: fluorescence correlation spectroscopy (FCS); 0.1 μM BODIPY-β-annulus peptide with 0~200 μM β-annulus peptide in 10 mM Tris-HCl buffer (pH 7.0) with 5 wt% PEG2000, 25 °C; ratio of the slow component fitted to the Hill equation. Particulars: both partners purified.
The target in data set [3] is T1, BODIPY-β-annulus peptide. Put plainly: fluorescence correlation spectroscopy (FCS); 0.1 μM BODIPY-β-annulus peptide with 0~200 μM β-annulus peptide in 10 mM Tris-HCl buffer (pH 7.0), sonicated 10 min, incubated 30 min, 25 °C; ratio of the slow component fitted to the Hill equation; apparent Kd. To be noted: both partners purified.
Data set [4] has as its target T1, BODIPY-β-annulus peptide. Put plainly: fluorescence correlation spectroscopy (FCS); 0.1 μM BODIPY-β-annulus peptide with 0~200 μM β-annulus peptide in 10 mM Tris-HCl buffer (pH 7.0) with 10 wt% PEG2000, 25 °C; ratio of the slow component fitted to the Hill equation. To be noted: both partners purified.
In data set [5] the target is T1, BODIPY-β-annulus peptide. Put plainly: fluorescence correlation spectroscopy (FCS); 0.1 μM BODIPY-β-annulus peptide with 0~200 μM β-annulus peptide in 10 mM Tris-HCl buffer (pH 7.0) with 15 wt% PEG2000, 25 °C; ratio of the slow component fitted to the Hill equation. To be noted: both partners purified.
Data set [6] has as its target T1, BODIPY-β-annulus peptide. Put plainly: fluorescence correlation spectroscopy (FCS); 0.1 μM BODIPY-β-annulus peptide with 0~200 μM β-annulus peptide in 10 mM Tris-HCl buffer (pH 7.0), sonicated 10 min, incubated 30 min, 25 °C; ratio of the slow component fitted to the Hill equation; apparent Kd. To be noted: both partners purified.
Data set [7] concerns the molecule itself. Put plainly: fluorescence correlation spectroscopy (FCS); 0.1 μM BODIPY-β-annulus peptide with 0~200 μM β-annulus peptide in 10 mM Tris-HCl buffer (pH 7.0) with 5 wt% PEG2000, 25 °C; ratio of the slow component fitted to the Hill equation.
In data set [8] the target is T1, BODIPY-β-annulus peptide. The data set is described as above. To be noted: both partners purified.

B1: 24-mer β-annulus peptide from tomato bushy stunt virus (peptide)
peptide: INHVGGTGGAIMAPVAVTRQLVGS
notes: also called unmodified β-annulus peptide; source: synthetic peptide (solid-phase Fmoc chemistry, purified by reversed-phase HPLC)
With B1, the Kd in data set [1] was 5.66 ± 2.15 µM; in data set [2], 14.4 ± 7.81 µM; in data set [4], 6.69 ± 3.25 µM; in data set [5], 4.24 ± 3.22 µM; in data set [6], 45.2 ± 10.6 µM. Moreover, the “ratio of the slow component at 200 μM β-annulus” value in data set [3] was 62%; in data set [8], 76%. Moreover, the binding result in data set [7] was “binds”.

For the origin of these results see article PMC8125178, “Fluorescence Correlation Spectroscopy Analysis of Effect of Molecular Crowding on Self-Assembly of β-Annulus Peptide into Artificial Viral Capsid” (International Journal of Molecular Sciences, 2021).
